Measured values from patent US20200216536A1.
Values joined by “and” are separate entries in the source; they are usually repeats but may differ in a detail not shown here. Identical values can stand only once.

Legend:
canine FcRn [1] = biological target: T1, canine FcRn (UniProtKB-E2ROL6 [FcRn] and UniProtKB-E2RN10 [canine beta-2-microglobulin]) (canine); assay: SPR Biacore 8K, pH 5.5, Fc captured on BSA via SASA tag, FcRn 200 nM
canine FcRn [2] = biological target: T1, canine FcRn; assay: as above; remark: listed apart in the source
canine FcRn [3] = biological target: T1, canine FcRn; assay: as above; remark: listed apart in the source
canine FcRn [4] = biological target: T1, canine FcRn; assay: as above; remark: listed apart in the source
canine FcRn [5] = biological target: T1, canine FcRn; assay: as above; remark: listed apart in the source
canine FcRn [6] = biological target: T1, canine FcRn; assay: as above; remark: listed apart in the source
canine FcRn [7] = biological target: T1, canine FcRn; assay: as above; remark: listed apart in the source
canine FcRn [8] = biological target: T1, canine FcRn; assay: SPR Biacore 8K, pH 5.5, Fc captured on BSA via SASA tag, FcRn 100-800 nM
canine FcRn [9] = biological target: T1, canine FcRn; assay: SPR Biacore 8K, pH 5.5, Fc captured on BSA via SASA tag, FcRn 200 nM; remark: listed apart in the source
canine FcRn [10] = biological target: T1, canine FcRn; assay: SPR Biacore 8K, pH 5.5, Fc captured on BSA via SASA tag, FcRn 400 nM; average of the 12 wild-type runs

Kd (canine FcRn [1]): 955 nM and 1310 nM
koff (canine FcRn [1]): 0.181 s⁻¹ and 0.209 s⁻¹
kon (canine FcRn [1]): 190000 M⁻¹ s⁻¹ and 159000 M⁻¹ s⁻¹
Kd (canine FcRn [2]): 1560 nM and 754 nM
koff (canine FcRn [2]): 0.179 s⁻¹ and 0.182 s⁻¹
kon (canine FcRn [2]): 115000 M⁻¹ s⁻¹ and 242000 M⁻¹ s⁻¹
Kd (canine FcRn [3]): 884 nM and 862 nM
koff (canine FcRn [3]): 0.21 s⁻¹ and 0.218 s⁻¹
kon (canine FcRn [3]): 237000 M⁻¹ s⁻¹ and 253000 M⁻¹ s⁻¹
Kd (canine FcRn [4]): 639 nM and 692 nM
koff (canine FcRn [4]): 0.17 s⁻¹ and 0.171 s⁻¹
kon (canine FcRn [4]): 267000 M⁻¹ s⁻¹ and 247000 M⁻¹ s⁻¹
Kd (canine FcRn [5]): 8990 nM and 3110 nM
koff (canine FcRn [5]): 0.347 s⁻¹ and 0.354 s⁻¹
kon (canine FcRn [5]): 38700 M⁻¹ s⁻¹ and 114000 M⁻¹ s⁻¹
Kd (canine FcRn [6]): 1710 nM and 2660 nM
koff (canine FcRn [6]): 0.288 s⁻¹ and 0.326 s⁻¹
kon (canine FcRn [6]): 168000 M⁻¹ s⁻¹ and 123000 M⁻¹ s⁻¹
Kd (canine FcRn [7]): 2050 nM and 2990 nM
koff (canine FcRn [7]): 0.31 s⁻¹ and 0.315 s⁻¹
kon (canine FcRn [7]): 151000 M⁻¹ s⁻¹ and 105000 M⁻¹ s⁻¹
Kd (canine FcRn [8]): 3150 nM
koff (canine FcRn [8]): 0.527 s⁻¹
kon (canine FcRn [8]): 168000 M⁻¹ s⁻¹
Kd (canine FcRn [9]): 502 nM and 784 nM
koff (canine FcRn [9]): 0.169 s⁻¹ and 0.207 s⁻¹
kon (canine FcRn [9]): 336000 M⁻¹ s⁻¹ and 264000 M⁻¹ s⁻¹
Kd (canine FcRn [10]): 566 nM
B1: wild-type canine IgG.B Fc (CH2 and CH3 domains) with SASA tag (Fc fusion, not shown: small tags and cut ends)
chain: APEMLGGPSVFIFPPKPKDTLLIARTPEVTCVVVDLDPEDPEVQISWFVDGKQMQTAKTQPREEQFNGTYRVVSVLPIGHQDWLKGKQFTCKVNNKALPSPIERTISKARGQAHQPSVYVLPPSREELSKNTVSLTCLIKDFFPPDIDVEWQSNGQQEPESKYRTTPPQLDEDGSYFLYSKLSVDKSRWQRGDTFICAVMHEALHNHYTQESLSHSPGK
